Experimental data taken from the supplement of paper PMC9112550, “Optimization of the antimicrobial peptide Bac7 by deep mutational scanning” (BMC Biology, 2022).

Test system: Escherichia coli TOP10
Experiment: shrunken log2 fold change of peptide-encoding DNA abundance (4.5 h post-induction vs induction); higher = less antimicrobial activity (less host growth inhibition)
Details: time post-induction: 4.5 h; library: site-saturation at positions 5, 18, 19, 20
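Also: peptides expressed intracellularly from a pBAD plasmid library in pooled LB shake-flask culture, induced with 0.3% L-arabinose, DNA abundance read by NGS, three biological replicates, DESeq2 with apeglm shrinkage.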

| Sequence | shrunken log2 fold change |
| --- | --- |
| RRIRHRPPRLPRPRPRPFGAPRP | -0.0114 |
| RRIRHRPPRLPRPRPRPFHRPRP | 0.00911 |
| RRIRHRPPRLPRPRPRPFIVPRP | -0.319 |
| RRIRHRPPRLPRPRPRPFIYPRP | -0.831 |
| RRIRHRPPRLPRPRPRPFLLPRP | -0.502 |
| RRIRHRPPRLPRPRPRPFLMPRP | -0.456 |
| RRIRHRPPRLPRPRPRPFLRPRP | -0.173 |
| RRIRHRPPRLPRPRPRPFLYPRP | -0.624 |
| RRIRHRPPRLPRPRPRPFMFPRP | -0.66 |
| RRIRHRPPRLPRPRPRPFNDPRP | -0.01 |
| RRIRHRPPRLPRPRPRPFNHPRP | -0.372 |
| RRIRHRPPRLPRPRPRPFPCPRP | -0.0311 |
| RRIRHRPPRLPRPRPRPFRDPRP | 0.0888 |
| RRIRHRPPRLPRPRPRPFRQPRP | 0.0583 |
| RRIRHRPPRLPRPRPRPFRSPRP | -0.000777 |
| RRIRHRPPRLPRPRPRPFTDPRP | -0.1 |
| RRIRHRPPRLPRPRPRPFTSPRP | -0.197 |
| RRIRHRPPRLPRPRPRPFVCPRP | -0.453 |
| RRIRHRPPRLPRPRPRPFVNPRP | -0.124 |
| RRIRHRPPRLPRPRPRPFWVPRP | -0.00136 |
| RRIRHRPPRLPRPRPRPFYEPRP | -0.108 |
| RRIRHRPPRLPRPRPRPGCFPRP | -0.181 |
| RRIRHRPPRLPRPRPRPGDCPRP | -0.0887 |
| RRIRHRPPRLPRPRPRPGDEPRP | -0.492 |
| RRIRHRPPRLPRPRPRPGEFPRP | -0.00759 |

| Sequence | shrunken log2 fold change |
| --- | --- |
| RRIRHRPPRLPRPRPRPGETPRP | -0.00149 |
| RRIRHRPPRLPRPRPRPGFCPRP | -0.0484 |
| RRIRHRPPRLPRPRPRPGFFPRP | 0.0196 |
| RRIRHRPPRLPRPRPRPGFQPRP | -0.0167 |
| RRIRHRPPRLPRPRPRPGGEPRP | 0.183 |
| RRIRHRPPRLPRPRPRPGGVPRP | 0.237 |
| RRIRHRPPRLPRPRPRPGHEPRP | -0.133 |
| RRIRHRPPRLPRPRPRPGIWPRP | 0.139 |
| RRIRHRPPRLPRPRPRPGKSPRP | -0.0128 |
| RRIRHRPPRLPRPRPRPGLPPRP | 0.118 |
| RRIRHRPPRLPRPRPRPGLVPRP | 0.0437 |
| RRIRHRPPRLPRPRPRPGLYPRP | -0.149 |
| RRIRHRPPRLPRPRPRPGMIPRP | -0.187 |
| RRIRHRPPRLPRPRPRPGNIPRP | -0.227 |
| RRIRHRPPRLPRPRPRPGQVPRP | -0.00149 |
| RRIRHRPPRLPRPRPRPGQWPRP | 0.318 |
| RRIRHRPPRLPRPRPRPGRDPRP | 0.135 |
| RRIRHRPPRLPRPRPRPGRYPRP | -0.017 |
| RRIRHRPPRLPRPRPRPGTNPRP | -0.212 |
| RRIRHRPPRLPRPRPRPGTPPRP | 0.104 |
| RRIRHRPPRLPRPRPRPGVDPRP | -0.213 |
| RRIRHRPPRLPRPRPRPHADPRP | -0.208 |
| RRIRHRPPRLPRPRPRPHAMPRP | -0.00419 |
| RRIRHRPPRLPRPRPRPHDAPRP | -0.357 |
| RRIRHRPPRLPRPRPRPHESPRP | -0.0218 |

| Sequence | shrunken log2 fold change |
| --- | --- |
| RRIRHRPPRLPRPRPRPHEWPRP | 0.00275 |
| RRIRHRPPRLPRPRPRPHFDPRP | -0.107 |
| RRIRHRPPRLPRPRPRPHFTPRP | -0.67 |
| RRIRHRPPRLPRPRPRPHGMPRP | -0.000911 |
| RRIRHRPPRLPRPRPRPHHVPRP | -0.35 |
| RRIRHRPPRLPRPRPRPHIMPRP | -0.63 |
| RRIRHRPPRLPRPRPRPHINPRP | -0.563 |
| RRIRHRPPRLPRPRPRPHKEPRP | -0.00832 |
| RRIRHRPPRLPRPRPRPHLDPRP | -0.214 |
| RRIRHRPPRLPRPRPRPHLHPRP | -0.513 |
| RRIRHRPPRLPRPRPRPHNLPRP | 0.0201 |
| RRIRHRPPRLPRPRPRPHNRPRP | -0.0976 |
| RRIRHRPPRLPRPRPRPHPCPRP | -0.612 |
| RRIRHRPPRLPRPRPRPHPKPRP | 0.0027 |
| RRIRHRPPRLPRPRPRPHQCPRP | 1.73 |
| RRIRHRPPRLPRPRPRPHQRPRP | 0.0129 |
| RRIRHRPPRLPRPRPRPHRYPRP | -0.136 |
| RRIRHRPPRLPRPRPRPHSIPRP | -0.318 |
| RRIRHRPPRLPRPRPRPHTGPRP | -0.226 |
| RRIRHRPPRLPRPRPRPHWPPRP | -0.25 |
| RRIRHRPPRLPRPRPRPHWVPRP | -0.00951 |
| RRIRHRPPRLPRPRPRPHYQPRP | 0.0121 |
| RRIRHRPPRLPRPRPRPIAPPRP | 0.0449 |
| RRIRHRPPRLPRPRPRPICEPRP | -0.369 |
| RRIRHRPPRLPRPRPRPICPPRP | -0.144 |
